We go through 1 substance from patent US20140314789.

The data set has as its target Flag-tagged calcineurin-defective (ΔCalna) CRTC2 (UniProt Q3U182).

Chain of Flag-tagged calcineurin-defective (ΔCalna) CRTC2 (Q3U182 whole entry, looked up, stated change not applied): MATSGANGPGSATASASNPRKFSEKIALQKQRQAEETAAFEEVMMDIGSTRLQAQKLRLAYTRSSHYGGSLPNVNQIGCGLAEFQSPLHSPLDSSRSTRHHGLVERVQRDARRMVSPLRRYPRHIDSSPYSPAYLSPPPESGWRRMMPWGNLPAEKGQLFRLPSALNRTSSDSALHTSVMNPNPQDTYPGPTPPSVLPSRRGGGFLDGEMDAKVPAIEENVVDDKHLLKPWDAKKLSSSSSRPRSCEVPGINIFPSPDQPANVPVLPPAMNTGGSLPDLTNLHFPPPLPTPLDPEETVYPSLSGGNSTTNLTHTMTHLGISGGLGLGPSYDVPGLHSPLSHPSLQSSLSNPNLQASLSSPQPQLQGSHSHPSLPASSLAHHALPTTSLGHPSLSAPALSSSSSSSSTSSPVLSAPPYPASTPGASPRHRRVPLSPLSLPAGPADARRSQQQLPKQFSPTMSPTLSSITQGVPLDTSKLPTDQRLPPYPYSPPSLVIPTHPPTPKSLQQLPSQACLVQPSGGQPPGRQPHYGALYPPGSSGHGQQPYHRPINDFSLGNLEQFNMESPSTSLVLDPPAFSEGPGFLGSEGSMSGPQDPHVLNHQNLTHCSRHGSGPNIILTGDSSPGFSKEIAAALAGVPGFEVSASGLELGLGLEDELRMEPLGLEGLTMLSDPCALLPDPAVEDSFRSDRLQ

HA-tagged calcineurin A (Calna): the “glucagon-dependent dephosphorylation of CRTC2, nuclear translocation, CRE-luc activation” value was “mutation of both motifs disrupted the glucagon-dependent dephosphorylation of CRTC2 (FIG. 33B) and prevented its nuclear translocation (FIG. 38C), thereby down-regulating CRE-luc activation”.
